# Source: patent publication US20240376199A1 (University of Texas, published 2024)
# Target: TREM2-DAP12 reporter construct on 2B4 NFAT-EGFP reporter cells (mouse; human, UniProt Q99NH8 19-171; O43914 28-113)
# Assay: cell-based or functional assay
row,EC50 of activation of TREM2-DAP12 NFAT-EGFP reporter cells [nM],Binder
1,79.4,"Ab18 IgG (antibody, V domains shown) VH: QVQLQESGPGLVKPSETLSLTCTVSGGSISSYYWSWIRQPPGKGLEWIGSIYYSGSTNYNPSLKSRVTISVDTSKNQFSLKLSSVTAADTAVYYCARDGGGEYPSGTPFDIWGQGTMVTVSS VL: not shown"

# Target: T1, muTfR-His (Sino Biological) (mouse, UniProt Q62351 89-763)
# T1 construct: extracellular domain; Bought protein; also called TfR ECD; mouse transferrin receptor; not shown: His tag
# T1 sequence (Q62351 89-763): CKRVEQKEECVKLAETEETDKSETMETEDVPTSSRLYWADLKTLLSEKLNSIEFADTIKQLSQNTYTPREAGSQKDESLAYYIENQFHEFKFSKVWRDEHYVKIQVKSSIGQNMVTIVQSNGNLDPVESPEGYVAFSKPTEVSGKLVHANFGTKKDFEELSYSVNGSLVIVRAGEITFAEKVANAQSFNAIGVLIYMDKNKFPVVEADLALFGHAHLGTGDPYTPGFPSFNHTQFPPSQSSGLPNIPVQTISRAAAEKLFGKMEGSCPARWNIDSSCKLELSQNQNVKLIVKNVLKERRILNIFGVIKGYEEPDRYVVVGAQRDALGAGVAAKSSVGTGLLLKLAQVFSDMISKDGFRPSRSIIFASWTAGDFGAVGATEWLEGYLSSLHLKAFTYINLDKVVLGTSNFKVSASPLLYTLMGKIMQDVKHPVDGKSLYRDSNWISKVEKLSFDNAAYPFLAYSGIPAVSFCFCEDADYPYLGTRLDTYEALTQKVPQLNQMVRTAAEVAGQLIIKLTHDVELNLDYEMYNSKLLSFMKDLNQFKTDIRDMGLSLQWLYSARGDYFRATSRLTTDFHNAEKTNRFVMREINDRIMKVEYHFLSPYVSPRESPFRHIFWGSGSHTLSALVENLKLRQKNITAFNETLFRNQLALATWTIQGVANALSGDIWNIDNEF
# Assay: sandwich BLI, biotinylated TREM2 on streptavidin sensor, antibody step omitted
# Experimental: Streptavidin sensors (Fortebio) were used to capture biotinylated TREM2 proteins (Sino Biological). During all incubation steps, samples were kept at room temperature with 1000 rpm shaking. In the TREM2 loading step, 100 nM biotinylated TREM2 proteins were incubated with the sensors for the designated time. In the bispecific antibody interaction steps, 200 nM antibodies were used. In the muTfR incubation step, 100 nM muTfR-His (Sino Biological) were used. Between incubations, the sensors were dipped into blank kinetic buffers to allow the free dissociation of proteins.
row,binding result,Binder
1,no binding (tested: 100 nM),"biotinylated TREM2 protein (Sino Biological) (receptor, Biotinylated; sites not stated., not shown: biotin label) LNTTVLQGMAGQSLRVSCTYDALKHWGRRKAWCRQLGEEGPCQRVVSTHGVWLLAFLKKRNGSTVIADDTLAGTVTITLKNLQAGDAGLYQCQSLRGREAEVLQKVLVEVLEDPLDDQDAGDLWVPEESSSFEGAQVEHSTSRNQETSFPPTS"

# Target: TREM2 (antigen of the BLI kinetics and binning of Tables 2 and 3)
# Assay: BLI, Octet Red96
Binder,Kd [nM],koff [s⁻¹],kon [M⁻¹ s⁻¹]
"TREM2-Ab2Rb (antibody, V domains shown, Rabbit-derived mAb; also called 2 H / 2 k) VH: QKQLVESGGGLVKPEGSLTLTCKVSGIDFSSAGISWVRQAPGKGLEWIAYIYPDYGVTDYANWVNGRFTISLDNAQNTVFLQMTSLTAADTATYFCARMDAADAGYGYDLWGPGTLVTVSS VL: AAVLTQTTSPVSGAVGGTVTIKCQASQSVGSNLAWYQQKPGQPPKILIGGASKLASGVPSRFSGSGSGTEFTLTISDLECADAGTYYCHSYYYSSTSADAFGGGTKVVVE",1.2,0.000451,376000
"TREM2-Ab6Rb (antibody, V domains shown, also called 2 H / 6 k) VH: QKQLVESGGGLVKPEGSLTLTCKVSGIDFSSAGISWVRQAPGKGLEWIAYIYPDYGVTDYANWVNGRFTISLDNAQNTVFLQMTSLTAADTATYFCARMDAADAGYGYDLWGPGTLVTVSS VL: DVVMTQTTSPVSGAVGGTVTIKCQASQSVGTNLAWYQQKPGQPPKILIGGASKLASGVPSRFSGSGSGTEFTFTISDLECADAGTYYCHSYYYSSTSADAFGGGTEVVVK",1.97,0.000909,461000
"TREM2-Ab8Hu (antibody, V domains shown, also called H8-Hu / 8L-Hu) VH: QVQLVESGGGLIQPGGSLRLSCAVSGVSVSNNYMNWVRQAPGKGLEWVSSMYSDATTHYADSVKGRFTISRDNSKNNMYLQMDSLRAEDTAVYYCARESVAGTLDFWGQGTTVSVSS VL: SYELTQPPSASGTPGQRVTISCSGSSSNIGTYPVNWYQKLPGTAPKLLIYTNNQRPSGVPDRFSGSKSGTSASLTISGLQSEDEADYYCATWGDSLNAVVFGGGTKVTVL",8.18,0.00499,609000
"TREM2-Ab1Rb (antibody, V domains shown, Rabbit-derived mAb; also called 1 H / 1 k) VH: QEQLVESGGGLVTPGGTLTLTCTASGIDFSNYGISWVRQAPGKGLEWIGYIYPDYGATAYANWVNGRFTVSLDNAQNTVTLNMTSLTAADTATYFCARSTGWGDFNLWGPGTLVTVSS VL: DVVMTQTPASVSEPVGGTVTIKCQASQNIGSNLAWYQQKPGQPPNLLIYGASNLASGVSSRFKGSSSGTEYTLTISDLECADAATYYCQCTYYGSSYVAFGGGTEVVVK",1.42,0.000727,513000
"TREM2-Ab2Hu (antibody, V domains shown, also called H2-Hu / 2L-Hu) VH: QVQLVQSGAEVKKPGASVKVSCKASGYTFTSYYMHWVRQAPGQGLEWMGIINPSGGSTSYAQKFQGRVTMTRDTSTSTVYMELSSLRSEDTAVYYCARDRPGRSSIAAAGPKRGHYGMDVWGQGTTVSVSS VL: QSALNQPASVSGSPGQSITISCTGTSSDVGGYNYVSWYQQHPGKAPKLMIYEVSNRPSGVSNRFSGSKSGNTASLTISGLQAEDEADYYCSSYTSSRTLVFGTGTKVTVL",18.1,0.00647,359000

# Now from value to binder:
Kd [nM],koff [s⁻¹],kon [M⁻¹ s⁻¹],Binder
3.1,0.00107,346000,"TREM2-Ab22Rb (antibody, V domains shown, Rabbit-derived mAb; also called 22 H / 22 k) VH: QSVEESGGDLVKPGASLTLTCTASGFSFSSTAMCWVRQAPGKGLEWIACIGFSSGIINYANSVKGRFTISKTSSTTVSLQMNSLTAADTATYFCARFFNLWGPGTLVTVSS VL: DPVLTQTPSSVSAAVGGTVTISCQATETVYSNDRLAWYQQKPGQPPKLLIYRISTLESGVPSRFKGSGSGTQFTLTISGVQCDDAATYYCAGGYNGNIWAFGGGTEVVVK"
27.5,0.00487,177000,"TREM2-Ab26Rb (antibody, V domains shown, Rabbit-derived mAb; also called 26 H / 26 k) VH: QKQLVESGGDLVKPEGSLTLTCTASGFSFSYSYYMCWVRQAPGKGLEWIGCIYGGGSGSSYYASWAKGRFTISKTSSTTVTLQVTSLTAADTATYFCARIDDAYATVMWGPGTLVTVSS VL: DVVMTQTASPVSGAVGGTVTIKCQASEDIYSSLAWYQQKPGQPPKLLIYQASKLASGVPPRFSGSGSGTEYTLTISDLECADAATYYCQNYYYVRGADYWAFGGGTEVVVE"
71.8,0.00685,95500,"TREM2-Ab12Rb (antibody, V domains shown, Rabbit-derived mAb; also called 12 H / 12 k) VH: QSVEESGGDLVKSGASLTLTCTASGFSFSSYYFMCWVRQAPGRGLEWIACIYAGTSANTYYASWAKGRFTISKTSSTTVTLQMTSLTAADTATYFCARDRGYYTYADAGYAYATDGFDLWGPGTLVTVSS VL: ALVMTQTPASVEAAVGGTVTIKCQASQNIYSNLAWYQQKPGQPPKRLIYKASTLPSGVPSRFKGSGSGTQFTLTISDLECADAATYYCQSNYYSSSSNYGPNAFGGGTEVVVK"
18.9,0.00986,522000,"TREM2-Ab19Hu (antibody, V domains shown, also called H19-Hu / 19L-Hu) VH: EVQLVQSGAEVKKPGASVKVSCKASGYTFTSYYMHWVRQAPGQGLEWMGIINPSGGSTSYAQKFQGRVTMTRDTSTSTVYMELSSLRSEDTAVYYCARSLSSGSYYDYWGQGTLVSVSS VL: QSALTQPASVSGSPGQSITISCTGTSSDVGGYNYVSWYQQHPGKAPKLMIYDVTKRPSGVSNRFSGSKSGNTASLTVSGLQAEDEADYYCSSYTSSRTLVFGGGTKVTVL"
0.32,7.84e-05,245000,"TREM2-Ab16Rb (antibody, V domains shown, Rabbit-derived mAb; also called 16 H / 16 k) VH: QEQLVESGGGLVKPGASLTLTCTASGFSFSDTAYICWVRQAPGKGLEWVACIAFGDGRTYLASWAKGRFTISKTSSTTVTLQMTSLPAADTATYFCASNFTLWGPGTLVTVSS VL: DVVMTQTPASVSEPVGGTVTINCQAIQSIGNNFVWYQQKPGQPPKLLIYKASIRASGVSSRFRGSGSGTDFTLTISDLECDDTGTYYCQCTYASSATFGGGTEVVVK"
